From patent US20250064952A1 (ACCELERON PHARMA, published 2025)

Key:
[1] = target: T1, ActRIIB-Fc homodimer (human, UniProt Q13705 19-137); test: SPR (Biacore), 37 C, anti-Fc capture, ligand in flow
T1 construct: extracellular domain; also called unmodified ActRIIB-Fc homodimer; ActRIIB-Fc:ActRIIB-Fc homodimer
T1 sequence (looked up): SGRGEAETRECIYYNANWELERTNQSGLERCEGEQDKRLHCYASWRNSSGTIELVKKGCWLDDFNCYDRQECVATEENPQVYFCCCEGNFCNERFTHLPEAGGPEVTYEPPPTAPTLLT
Experimental: A Biacore™-based binding assay was used to compare the ligand binding kinetics of an ActRIIB-Fc:ActRIIB(L79E)-Fc heterodimer with those of unmodified ActRIIB-Fc homodimer. Fusion proteins were captured onto the system using an anti-Fc antibody. Ligands were then injected and allowed to flow over the captured receptor protein at 37° C. Results are summarized in the table below, in which ligand off-rates (kd) most indicative of effective ligand traps are denoted in bold.

[2] = target: T1, ActRIIB-Fc homodimer; test: SPR (Biacore), anti-Fc capture, ligand in flow
Experimental: (§1) A Biacore™-based binding assay was used to compare ligand binding selectivity of the ActRIIB-Fc:ALK7-Fc heterodimeric complex described above with that of ActRIIB-Fc and ALK7-Fc homodimeric complexes. The ActRIIB-Fc:ALK7-Fc heterodimer, ActRIIB-Fc homodimer, and ALK7-Fc homodimer were independently captured onto the system using an anti-Fc antibody. Ligands were injected and allowed to flow over the captured receptor protein. Results are summarized in the table below, in which ligand off-rates (kd) most indicative of effective ligand traps are denoted by bold font.

[3] = target: T2, ActRIIA-mFc (human, UniProt P27037 20-135); test: similar Biacore binding assay
T2 construct: extracellular domain; not shown: minimal linker, not specified for the mouse construct
T2 sequence (P27037 20-135): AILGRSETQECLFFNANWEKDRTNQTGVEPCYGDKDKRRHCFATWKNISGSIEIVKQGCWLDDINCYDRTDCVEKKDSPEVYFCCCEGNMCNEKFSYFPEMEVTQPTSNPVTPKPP
Experimental: GDF11 or activin A were immobilized on a Biacore™ CMS chip using standard amine-coupling procedure. ActRIIA-hFc and ActRIIA-mFc proteins were loaded onto the system, and binding was measured. […] See FIG. 15A-B. Using a similar binding assay, ActRIIA-hFc was determined to have high to moderate affinity for other TGF-beta superfamily ligands including, for example, activin B, GDF8, BMP6, and BMP10. ActRIIA-mFc behaved similarly.

[4] = target: T1, ActRIIB-Fc homodimer; test: SPR (Biacore), anti-Fc capture, ligand in flow; remark: listed apart in the source
Experimental: as §1, with “ActRIIB-Fc:ALK4-Fc” for “ActRIIB-Fc:ALK7-Fc”, “ALK4-Fc homodimer” for “ALK7-Fc homodimeric”, “ALK4-Fc” for “ALK7-Fc”

B1: activin B (ligand, UniProt P09529 293-407, looked up)
chain: GLECDGRTNLCCRQQFFIDFRLIGWNDWIIAPTGYYGNYCEGSCPAYLAGVPGSASSFHTAVVNQYRMRGLNPGTVNSCCIPTKLSTMSMLYFDDEYNIVKRDVPNMIVEECGCA
Kd [1]: 8 pM
koff [1]: 6.6e-05 s⁻¹
kon [1]: 8.1e+06 M⁻¹ s⁻¹
Kd [2]: 8 pM
koff [2]: 0.00016 s⁻¹
kon [2]: 1.5e+07 M⁻¹ s⁻¹
binding result [3]: binds
Kd [4]: 0.02 nM
koff [4]: 0.0001 s⁻¹
kon [4]: 5.1e+06 M⁻¹ s⁻¹
